The text below walks through data of paper PMC8833195.

Test in all cases: SEC
(In general: SEC sorts molecules by how far they enter the pores of the column.)

The target of assay [1] is repaired and stabilized HA of H3N2 A/Brisbane/10/2007 (P194L in HA1) (influenza A virus H3N2 A/Brisbane/10/2007).
The target in assay [2] is repaired and stabilized HA of H3N2 A/Singapore/INFIMH/16/0019/2016 (P194L in HA1) (influenza A virus H3N2 A/Singapore/INFIMH/16/0019/2016).
In assay [3] the target is HA ectodomain of H1N1 A/California/07/2009 with K51I + E103I (influenza A virus H1N1 A/California/07/2009).

Broadly, the stoichiometry N is a count of units in the complex or per binding partner. With “repaired and stabilized HA of H3N2 A/Brisbane/10/2007 (P194L in HA1) (domain or fragment)”, the stoichiometry N in assay [1] was 3.
In assay [2], “repaired and stabilized HA of H3N2 A/Singapore/INFIMH/16/0019/2016 (P194L in HA1) (domain or fragment)” had a stoichiometry N of 3.
“HA ectodomain of H1N1 A/California/07/2009 with K51I + E103I (domain or fragment)”: in assay [3], the stoichiometry N turned out to be 3.
